± gives the uncertainty stated by the source.
Test: protein stability index of a GFP-peptide fusion (yeast GPS) (PSI 1-4); higher = more stable; sorted into four equal gates, so the index is relative within each strain
Procedure, shortened: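 Sequencing reads from sorted gates were used to score each peptide. The library consisted of tiled 17-residue yeast protein peptides fused downstream of GFP on a Cherry-expressing plasmid, pooled and carried in yeast. Mid-log cultures in leucine-free medium were split into four equal gates by GFP/Cherry ratio, and each gate's plasmids were PCR-amplified and Illumina-sequenced. The protein stability index adds up, over all gates, the read frequency multiplied by the gate number.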

Sequence | protein stability index (doa10∆) | protein stability index (pdr5∆) | protein stability index (san1∆) | protein stability index (ubr1∆)
EEYVINLLKVSVDICNN [ECM29] | 2.15 ± 0.064 | 2.58 ± 0.063 | 2.7 ± 0.048 | 2.65 ± 0.053
EFCDEPSVGVKTMKTFV [RPB5] | 3.15 ± 0.12 | 3.56 ± 0.27 |  | 
EFFNPEIFHLLQPLEEG [SIN4] | 1.88 ± 0.079 | 1.84 ± 0.064 | 1.59 ± 0.086 | 2.07 ± 0.056
EFIAAVNNPQEETSHLL [RPN10] | 2.33 ± 0.12 | 3 ± 0.091 | 3 ± 0.14 | 2.82 ± 0.068
EGARMVRELFEMARTKK [RPT1] | 1.78 ± 0.12 | 1.7 ± 0.15 |  | 
EGDIQVLKSYGAAPYAA [RPT1] | 2.84 ± 0.095 | 2.83 ± 0.12 | 3.05 ± 0.082 | 2.82 ± 0.063
EGIKVVDIDDPDMMVDS [SNF2] | 3 ± 0.17 | 3.14 ± 0.19 | 3.12 ± 0.094 | 2.97 ± 0.091
EGKKVMAPYLPGSRASS [RPN2] | 2.47 ± 0.065 | 2.69 ± 0.074 | 2.4 ± 0.072 | 2.54 ± 0.052
EGLDLLKLCVQELEKRM [PRE1] | 2.04 ± 0.095 | 2.32 ± 0.076 | 2.19 ± 0.16 | 2.06 ± 0.059
EGLIIDTDKLPIKNRTS [SIN4] | 2.79 ± 0.11 | 2.85 ± 0.086 | 2.76 ± 0.074 | 2.94 ± 0.063
EGNAGGDQKTSENRNNI [YOR098C/NUP1] |  | 3.6 ± 0.17 | 3.19 ± 0.17 | 3.36 ± 0.074
EGNQGSLQEDVSFDFNG [MED8] | 3.17 ± 0.12 | 3.41 ± 0.085 | 3.23 ± 0.062 | 3.2 ± 0.07
EHASLLVRDSKPSKPFN [MED8] | 2.43 ± 0.057 | 2.67 ± 0.046 | 2.56 ± 0.05 | 2.55 ± 0.052
EHGMNAPSVPEFIYLTK [SNF2] | 3.21 ± 0.092 | 3.28 ± 0.077 | 2.91 ± 0.069 | 3.15 ± 0.059
EHHSSVKYASPNLNMKY [FAS2] | 3.17 ± 0.068 | 3 ± 0.06 | 2.94 ± 0.054 | 2.92 ± 0.04
EHKTPELISFKERTKSL [YIL149C/MLP2] | 2.85 ± 0.066 | 2.95 ± 0.076 | 2.93 ± 0.076 | 3.22 ± 0.079
EHNPSAHTASVGVVFGS [COR1] | 3.21 ± 0.16 | 3.24 ± 0.13 | 2.88 ± 0.14 | 2.22 ± 0.27
EIARQMRDKSFGRTLAS [RPL12A] | 3.25 ± 0.1 | 3.07 ± 0.12 | 2.88 ± 0.13 | 2.72 ± 0.18
EIELKKLPKVYKRSIVR [SWI1] | 2.11 ± 0.069 | 1.86 ± 0.071 | 2.68 ± 0.099 | 2.91 ± 0.074
EIENATKDIFPLQNIHV [RPS1A] | 2.1 ± 0.086 | 2.36 ± 0.27 | 1.11 ± 0.29 | 2.25 ± 0.083
EIEQLDQYIQKQVQISH [YGL172W/NUP49] | 2.91 ± 0.056 | 3.11 ± 0.05 | 2.75 ± 0.073 | 2.87 ± 0.059
EIEVDEMEVDAEGEEVE [RPN1] | 3.52 ± 0.084 | 3.68 ± 0.12 | 3.52 ± 0.082 | 3.49 ± 0.067
EINNLIQLPASLAATYS [ARP9] | 1.59 ± 0.063 | 1.87 ± 0.045 | 1.96 ± 0.07 | 1.65 ± 0.047
EIQRTMLELLNQLDGFD [RPT2] | 2.83 ± 0.088 | 2.97 ± 0.12 | 2.93 ± 0.067 | 
EIYTVEDRPPEYWAQRK [ISW2] | 3.44 ± 0.23 | 3.14 ± 0.14 |  | 3.31 ± 0.13
EKADYERELISNIEQTE [YIL149C/MLP2] | 3.34 ± 0.079 | 3.48 ± 0.087 | 3.27 ± 0.063 | 3.6 ± 0.098
EKFSSFIESIVVDFKNK [SNF12] | 2.69 ± 0.065 | 2.84 ± 0.078 | 2.74 ± 0.081 | 2.77 ± 0.061

Sequence | protein stability index (doa10∆) | protein stability index (pdr5∆) | protein stability index (san1∆) | protein stability index (ubr1∆)
EKKQKTESQDVETRVQN [DPB4] | 3.52 ± 0.11 | 3.38 ± 0.072 | 3.35 ± 0.048 | 3.3 ± 0.056
EKLINNSDDCMMEEIIN [ECM29] | 3.36 ± 0.11 | 3.1 ± 0.11 | 3.1 ± 0.066 | 3.13 ± 0.12
EKLLRHVDSLIEDFVDG [SRB7] | 3.2 ± 0.08 | 3.2 ± 0.083 | 3.22 ± 0.061 | 3.24 ± 0.057
EKLVSDLRLIKVPQQAA [SMC1] | 3.19 ± 0.18 | 3.44 ± 0.16 | 2.16 ± 0.24 | 3.3 ± 0.14
EKPLILADYIVEVLLVN [NUT1] | 1.91 ± 0.047 | 1.49 ± 0.039 | 1.65 ± 0.17 | 1.32 ± 0.039
EKTINDLQRTQTLSEKE [YIL149C/MLP2] | 2.97 ± 0.071 | 3.03 ± 0.06 | 2.94 ± 0.044 | 2.94 ± 0.042
EKYAAAAPAATSAASGD [RPP0] | 2.47 ± 0.097 | 2.15 ± 0.074 | 1.88 ± 0.13 | 2.78 ± 0.048
ELALIEEAYDNPHDTLN [PRP8] | 3.32 ± 0.088 | 3.3 ± 0.077 | 3.51 ± 0.076 | 3.41 ± 0.07
ELALLNHWRQNKGRAVY [BRR2] | 1.21 ± 0.21 | 1.21 ± 0.13 | 1.21 ± 0.29 | 1.1 ± 0.083
ELDILNKGWKLQSLNES [SRB4] |  | 3.05 ± 0.21 | 3 ± 0.18 | 
ELDTASRILKAQSRNVE [YGR119C/NUP57] | 2.35 ± 0.055 | 2.34 ± 0.063 | 2.03 ± 0.077 | 2.43 ± 0.056
ELENFLDNFETKTEALL [YJL041W/NSP1] | 2.62 ± 0.12 | 2.91 ± 0.14 | 2.72 ± 0.15 | 1.81 ± 0.1
ELGEIIDEDIGNNVQEN [RMP1] |  |  | 3.02 ± 0.26 | 
ELGEQKCQELVTNIRRI [RRP46] | 2.09 ± 0.072 | 1.81 ± 0.056 | 1.55 ± 0.15 | 1.98 ± 0.071
ELHKEGTISKLENKENG [SMC2] | 2.01 ± 0.12 | 2.61 ± 0.097 | 1.4 ± 0.076 | 1.62 ± 0.075
ELIQKYLGDGPRLCRQI [RPT2] |  |  | 2.76 ± 0.2 | 
ELKDICSFAVTKSSLND [YML103C/NUP188] | 2.87 ± 0.072 | 2.96 ± 0.065 | 2.89 ± 0.072 | 3.02 ± 0.05
ELLKSSLQKAGSKMEAK [AAR2] | 3.23 ± 0.077 | 3.35 ± 0.085 | 3.05 ± 0.079 | 3.07 ± 0.079
ELMAMNITPRLYTDRSR [RPB2] | 1.91 ± 0.12 | 1.68 ± 0.074 | 1.23 ± 0.13 | 1.96 ± 0.074
ELMDRTGLKLYSRITLI [RPP1] | 1.57 ± 0.11 | 2.66 ± 0.1 | 1.69 ± 0.1 | 2.43 ± 0.12
ELPKFILSDSPLELSAP [DIS3] | 2.5 ± 0.095 | 3.37 ± 0.17 | 2.85 ± 0.19 | 3.04 ± 0.092
ELQGYIELSVPDRQSMD [SRB5] | 1.36 ± 0.23 |  |  | 1.17 ± 0.21
ELSDKEIYTVEDRPPEY [ISW2] | 3.34 ± 0.13 | 3.45 ± 0.15 | 3.33 ± 0.17 | 3.42 ± 0.12
ELSEEKYIVKASSGPRY [RPT4] | 2.66 ± 0.21 | 2.72 ± 0.17 | 3.21 ± 0.098 | 2.41 ± 0.18
ELTDEYLAENPDPNFEN [PRP8] | 3.45 ± 0.077 | 3.16 ± 0.076 | 3.36 ± 0.077 | 3.32 ± 0.053
ELTLAEQQVKEAEMAYV [SMC4] | 3.02 ± 0.1 | 3.1 ± 0.076 | 2.81 ± 0.078 | 2.81 ± 0.074

Source: the supplement of paper PMC9732359
